Measured values as given in patent US20240002514A1.

Target: human PD-L1 expressed on the cell surface (CHO cells expressing human PD-L1; Promega CS187103 / 187103 cells) (human) (UniProt Q9NZQ7)
Sequence (Q9NZQ7 19-290): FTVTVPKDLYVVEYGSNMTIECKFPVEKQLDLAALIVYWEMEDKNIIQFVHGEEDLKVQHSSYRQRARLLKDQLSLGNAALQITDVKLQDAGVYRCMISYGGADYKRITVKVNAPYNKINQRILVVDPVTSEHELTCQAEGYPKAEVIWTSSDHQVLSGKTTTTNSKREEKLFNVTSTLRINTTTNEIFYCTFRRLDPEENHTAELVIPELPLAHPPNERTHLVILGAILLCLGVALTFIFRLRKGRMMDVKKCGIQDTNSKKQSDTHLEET

EC50, PD-1/PD-L1 blockade (% PDL1 Blockade, NFAT-luciferase reporter): 0.17 nM
B1: 29E.2A3 (antibody, from another filing, V domains shown)
VH: EVQLQQSGPELVKPGASVKMSCKASGYTFTSYVMHWVKQKPGQGLEWIGYVNPFNDGTKYNEMFKGKATLTSDKSSSTAYMELSSLTSEDSAVYYCARQAWGYPWGQGTLVTVSA
VL: DIVLTQSPASLAVSLGQRATISCRATESVEYYGTSLVQWYQQKPGQPPKLLIYAASSVDSGVPARFSGSGSGTDFSLTIHPVEEDDIAMYFCQQSRRVPYTFGGGTKLEIK
